Source: US20230087785A1, “Leucine-Rich Repeat Kinase 2 Allosteric Modulators” (VIB VZW, priority 2020, published 2023)

B1: Nb1: LRRK2-specific Nanobody, SEQ ID NO: 1 (protein)
VHH: MAQVQLVESGGGLVQAGGSLRLSCVASGRIFSGNAMGWYRQAPGRQRELVAGITNGGYTNYRQFVKGRFTISRDNAKRTVYLQMNSLKPEDTAVYYCNALDREARQVDYWGQGTQVTVSS
modifications: Nanobody CA12610
B2: Nb23: LRRK2-specific Nanobody, SEQ ID NO: 3 (protein)
VHH: MAQVQLVESGGGLVQAGGSLRLSCAASGRTFSRYTMGWFRQAPGKDREFVARITTSGAVTTYADSAKGRFTISRDNAKNTVYLQMNTLKPEDTAVYYCAAGQGQLSSQSRFVDYWGQGTQVTVSS
modifications: Nanobody CA13612
B3: Nb6: LRRK2-specific Nanobody, SEQ ID NO: 2 (protein)
VHH: MAQVQLVESGGGLVQAGGSLRLSCAASGSIFSPTAMGWYRQAPGKERELVAGITSGGYTNYRNFARGRFTISRDNAKKTVYLQMNSLNPEDTAVYYCNTLTISWSWGQGTQVTVSS
modifications: Nanobody CA12618
B4: Nb22: LRRK2-specific Nanobody, SEQ ID NO: 9 (protein)
VHH: MAQVQLVESGGGLVQAGGSLRLSCAASGRTFSSYTMGWFRQAPGKEREFVAAIRWSGGSTYYADSVKGRFTISRDNAKNTVYLQMNSLKPEDTAVYYCAASDRGGFIATSGGWMDYWGKGTQVTVSS
modifications: Nanobody CA13611
B5: Nb42: LRRK2-specific Nanobody, SEQ ID NO: 6 (protein)
VHH: MAQVQLVESGGGLVQAGGSLRLSCAASGDVNYAVGWFRQAPRKEREFVAAINWRGDNTDYTDSVKGRFTISRDNAKNTVYLQMNSLKPEDTAVYYCAAKSAPYWYSDIAPDYWGQGTQVTVSS
modifications: Nanobody CA14259

molecular target: T1, LRRK2 (Homo sapiens, UniProt Q5S007, M2397T/R50H); experiment: Determination of kinase inhibition mechanism (Michaelis-Menten curves at varying ATP); type: biochemical; settings: Lineweaver-Burk plot and global fit
T1 construct: Full-length human LRRK2 was expressed and purified based on previously developed protocols; SF tag (FLAG-tag + Twin-Strep-tag); made in house; host or cells: HEK 293T
Procedure: FIGS. 11A-11C, Dose-response curves (upper panels) for the inhibition of the in vitro LRRK2 kinase activity by the group1 Nbs: Nb1 (FIG. 11A), Nb6 (FIG. 11B) and Nb23 (FIG. 11C), where the Nb concentration was varied from 200 or 150 μM to 0.006 μM in a two-fold serial dilution. The two lower panels show the Michaelis-Menten curves obtained for LRRK2 at varying concentrations of ATP and a fixed (sub-saturating) concentration of peptide substrate (AQT0615), and at varying concentrations of Nb1 (FIG. 11A), Nb6 (FIG. 11B) and Nb23 (FIG. 11C), and the corresponding linearizations according to the Lineweaver-Burk method (double-reciprocal plot). The Nb concentrations used are indicated below the plots. Each datapoint reflects the average (±SD) of three independent measurements.
To further confirm this, we set out to determine the mechanism of inhibition (competitive vs. uncompetitive vs. mixed/non-competitive) of these three Nbs vis-h-vis ATP as substrate, using our peptide phosphorylation assays as output. To this end, full Michaelis-Menten curves were obtained at a fixed (probably sub-saturating) concentration of peptide substrate (10 μM) and varying concentrations of ATP (FIGS. 11A-11C). […] This confirms that these Nbs are not competing with ATP for binding and that they inhibit the reaction by binding on an allosteric site, which is in agreement with the ELISA and CL-MS epitope mapping data. […] For CA12618, fitting on the same model yields a Kic^app of 5±1 μM with an α-value of 1.6±0.4, corresponding a Kic^app of 5 μM and a Kic^app of […]. For the kinase domain-binding CA13612, the linearized curves intersect closer to the Y-axis indicating a mechanism which is more ATP-competitive like. […] Fitting on a mixed inhibition model for CA13612 gives a Kic^app of 9±1 μM with an α-value of 7.5±1.9, corresponding a Kic^app of 9 μM and a Kic^app of 66 μM.
To determine the mechanism of inhibition and apparent Ki (Ki^app) values of CA12610, CA12618, CA13612 the PhosphoSens® Protein Kinase Assay (AssayQuant Technologies Inc.) in combination with the AQT0615 peptide substrate was used. Full Michaelis-Menten curves (relative velocity versus [ATP]) in presence of different Nb concentrations were collected at 30° C. in a buffer consisting of 50 mM HEPES pH 7.5, 0.1% Brij-35, 50 mM NaCl, 10 mM MgCl2 and […], using a fixed concentration of AQT0615 (10 μM) and varying concentrations of ATP. The LRRK2 concentration was chosen such that initial rates (linear fluorescence versus time curves) were obtained, and LRRK2, ATP and the Nbs were preincubated at 4° C. for 30 min prior to starting the reaction by adding the peptide substrate. The Michaelis-Menten curves for the different Nb concentrations were globally fit on a mixed-inhibition model using GraphPad Prism, according to the equation:
(with Kic^app=Ki^app and Ki^app−a·Ki^app)
Additionally, as a diagnostic tool, Michaelis-Menten curves were linearized using the Lineweaver-Burk (double reciprocal) plot.

T1 sequence (Q5S007 whole entry R50H/M2397T): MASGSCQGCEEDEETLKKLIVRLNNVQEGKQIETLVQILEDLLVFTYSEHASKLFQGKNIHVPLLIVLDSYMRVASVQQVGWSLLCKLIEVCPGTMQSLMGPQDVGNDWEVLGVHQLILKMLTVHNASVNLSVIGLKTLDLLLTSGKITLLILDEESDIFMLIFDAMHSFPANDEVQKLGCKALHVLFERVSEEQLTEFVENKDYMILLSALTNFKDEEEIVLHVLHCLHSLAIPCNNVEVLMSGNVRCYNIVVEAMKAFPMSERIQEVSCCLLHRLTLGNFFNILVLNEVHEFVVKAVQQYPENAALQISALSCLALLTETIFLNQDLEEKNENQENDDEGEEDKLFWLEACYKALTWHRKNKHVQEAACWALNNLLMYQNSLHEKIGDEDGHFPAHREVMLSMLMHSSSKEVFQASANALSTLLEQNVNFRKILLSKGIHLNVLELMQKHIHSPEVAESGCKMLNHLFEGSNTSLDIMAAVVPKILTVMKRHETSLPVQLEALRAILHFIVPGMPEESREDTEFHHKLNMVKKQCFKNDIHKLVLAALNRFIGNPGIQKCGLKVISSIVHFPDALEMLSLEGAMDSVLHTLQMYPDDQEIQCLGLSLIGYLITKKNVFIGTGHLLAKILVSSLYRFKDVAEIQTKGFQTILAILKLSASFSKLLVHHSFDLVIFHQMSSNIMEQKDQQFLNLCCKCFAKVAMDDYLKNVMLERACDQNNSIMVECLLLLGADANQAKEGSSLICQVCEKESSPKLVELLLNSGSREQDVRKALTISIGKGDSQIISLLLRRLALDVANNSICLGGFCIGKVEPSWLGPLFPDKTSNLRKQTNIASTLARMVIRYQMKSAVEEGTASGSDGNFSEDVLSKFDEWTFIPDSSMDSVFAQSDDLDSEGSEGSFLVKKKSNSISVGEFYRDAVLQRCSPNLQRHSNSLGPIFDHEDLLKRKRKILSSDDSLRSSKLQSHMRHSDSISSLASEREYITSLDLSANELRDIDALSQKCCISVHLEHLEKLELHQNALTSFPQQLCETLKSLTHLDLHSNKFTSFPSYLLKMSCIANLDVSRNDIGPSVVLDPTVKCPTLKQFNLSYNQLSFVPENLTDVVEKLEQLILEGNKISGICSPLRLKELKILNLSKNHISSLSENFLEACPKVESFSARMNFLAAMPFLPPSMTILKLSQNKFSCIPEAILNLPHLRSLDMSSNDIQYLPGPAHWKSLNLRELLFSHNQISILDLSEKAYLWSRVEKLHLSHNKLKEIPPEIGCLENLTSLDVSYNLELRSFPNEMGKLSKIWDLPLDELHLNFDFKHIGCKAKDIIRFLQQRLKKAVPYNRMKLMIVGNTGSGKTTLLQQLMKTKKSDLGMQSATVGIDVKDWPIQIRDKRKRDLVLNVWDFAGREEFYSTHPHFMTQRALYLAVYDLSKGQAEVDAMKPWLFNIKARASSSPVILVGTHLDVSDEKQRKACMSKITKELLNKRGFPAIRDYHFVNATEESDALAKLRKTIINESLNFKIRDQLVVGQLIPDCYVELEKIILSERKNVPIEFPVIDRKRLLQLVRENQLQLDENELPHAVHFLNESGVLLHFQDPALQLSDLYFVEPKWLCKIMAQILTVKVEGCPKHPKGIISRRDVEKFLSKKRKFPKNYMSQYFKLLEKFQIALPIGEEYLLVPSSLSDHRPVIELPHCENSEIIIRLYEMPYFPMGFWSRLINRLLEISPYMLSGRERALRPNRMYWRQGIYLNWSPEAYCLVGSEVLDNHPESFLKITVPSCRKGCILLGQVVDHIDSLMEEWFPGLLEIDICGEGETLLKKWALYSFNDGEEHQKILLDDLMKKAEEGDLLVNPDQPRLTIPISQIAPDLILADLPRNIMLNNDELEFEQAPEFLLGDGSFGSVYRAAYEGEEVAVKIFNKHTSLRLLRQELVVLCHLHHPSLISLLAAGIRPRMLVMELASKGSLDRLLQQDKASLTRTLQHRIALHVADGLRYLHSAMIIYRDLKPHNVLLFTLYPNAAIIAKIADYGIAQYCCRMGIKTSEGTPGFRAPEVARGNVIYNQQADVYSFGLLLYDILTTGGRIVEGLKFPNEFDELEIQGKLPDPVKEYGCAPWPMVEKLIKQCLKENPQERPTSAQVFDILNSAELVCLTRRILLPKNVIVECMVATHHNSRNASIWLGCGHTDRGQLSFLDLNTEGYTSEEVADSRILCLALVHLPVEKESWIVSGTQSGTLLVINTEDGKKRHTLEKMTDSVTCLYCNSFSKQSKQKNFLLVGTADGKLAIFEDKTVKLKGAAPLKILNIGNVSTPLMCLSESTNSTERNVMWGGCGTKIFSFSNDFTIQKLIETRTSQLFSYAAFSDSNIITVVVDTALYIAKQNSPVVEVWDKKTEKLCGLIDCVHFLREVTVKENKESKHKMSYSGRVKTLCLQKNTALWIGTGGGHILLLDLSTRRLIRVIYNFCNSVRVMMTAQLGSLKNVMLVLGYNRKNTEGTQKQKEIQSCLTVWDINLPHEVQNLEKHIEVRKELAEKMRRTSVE

Molecule	mechanism of inhibition vis-a-vis ATP as substrate
B1	mixed-type inhibition
B2	mixed-inhibition mechanism
B3	mixed-type inhibition

same assay, conditions: global fit, mixed inhibition model; 10 μM AQT0615, varying ATP

Molecule	α-value
B1	1.8±0.5
B2	7.5±1.9
B3	1.6±0.4

molecular target: T2, mScarlet-LRRK2 (Homo sapiens, UniProt Q5S007, M2397T/R50H); experiment: Confocal microscopy of LRRK2 microtubule localization in HEK293 cells; type: cell-based; settings: HEK293 cells co-transfected with mScarlet-LRRK2 and GFP-Nb, treated with 1 μM MLi-2
T2 construct: expressed in transfected cells; host or cells: HEK293
Source text: HEK 293 cells were co-transfected with the indicated GFP-Nbs and mScarlet-LRRK2. […] Scale bar 5 μm.
FIG. 6. […] Scale bar 5 μm.
The binding of LRRK2 to microtubules subsequently reduces the kinesin—and dynein-mediated transport along microtubules.
Recent structural information has linked LRRK2 microtubule relocalization to the conformation of the kinase domain, with a closed conformation favoring LRRK2 binding to microtubules. As a consequence, the commonly used ATP-competitive type I LRRK2 inhibitors trigger this effect. In addition, it was shown before that the WD40 domain is indispensable for LRRK2-microtubule association.
A HEK293 cell line was cultured in complete media (high-glucose Dulbecco's modified Eagle's medium, 10% fetal bovine serum and Penicillin-Streptomycin-Glutamine (Gibco)). Cells were seeded on 8-well p-Slide(Ibidi) and transfected at a confluency of 50-70% with GFP-Nb and mScarlet-LRRK2 constructs, using JetPEI reagent (Polyplus transfection). […] Data acquisition was done with a ×100 oil-immersion objective with a Zeiss LSM800 confocal laser scanning microscope. Image analysis of z-scan was done using the Zeiss microscope software ZEN.

T2 sequence (Q5S007 whole entry R50H/M2397T): as above

Molecule	effect on MLi-2-induced recruitment of LRRK2 to microtubules
B2	rescuing effect is most prominent
B4	rescuing effect is most prominent

molecular target: T3, endogenous LRRK2 (Mus musculus, UniProt Q5S006); experiment: Colocalization of GFP-Nbs with endogenous LRRK2 on zymosan-containing phagosomes in RAW264.7 cells; type: cell-based; settings: RAW264.7 cells transfected with GFP-Nbs, zymosan 30 mins, fixed cells
T3 construct: endogenous in cells; host or cells: RAW264.7
Procedure: RAW264.7 cells were transfected with GFP-fused Nbs and treated with Zymosan for 30 mins. Recruitment of LRRK2 and Nbs to the phagosomes was analyzed by immunofluorescence. FIG. 16A, images for Nb38, Nb22, Nb23, Nb40, No Nb, or Irrelevant (IRR) Nb treatments; FIG. 16B, images for Nb36, Nb42, Nb17, Nb39, Nb1, and Nb6 treatments. Scale bar=10 μm.
To test whether Nbs can trace and visualize endogenous LRRK2 in fixed cells, we generated green fluorescent protein (GFP)-Nb fusions (fluobodies) as described before. Recently, it was shown that LRRK2 is recruited to phagosomes upon induction of phagocytosis in immune cells. Therefore, RAW264.7 cells were transfected with these fluobodies and treated with killed yeast bioparticles “zymosan” to induce phagocytosis.
RAW264.7 cells (ATCC® SC-6003™) were transfected with peGFP-Nb constructs using JetOPTIMUS (Polyplus transfection) for 24 hrs and then stimulated with Zymosan particles (Sigma Aldrich) for 30 mins ([…]). Immunostaining for LRRK2 was performed as reported before. Briefly, cells fixed with 4% (w/v) paraformaldehyde for 30 min, followed by treatment with 100% EtOH at −20° C. Sampled were permeabilized with PBS/0.5% Triton X-100 and blocked with 3% BSA. Primary antibodies (rabbit anti-LRRK2, c41-2, Abcam and mouse anti-GFP, G6539, Sigma Aldrich) were diluted in PBS containing 3% BSA and 0.5% Triton X-100 and incubated overnight at 4° C. After three 5-min washes with PBS, secondary fluorescently labeled antibodies (anti-rabbit-Alexa fluor 568 and anti-mouse-Alexa fluor 488, Invitrogen) were added in a similar manner to primary antibodies and incubated for 1 hour at room temperature. Cells were washed twice with 1×PBS and mounted with Fluroshield antifade reagent with DAPI (SigmaAldrich). Images were acquired on Zeiss LSM800 confocal laser scanning microscope. Image analysis of z-scan was done using the Zeiss microscope software ZEN.

T3 sequence (Q5S006 whole entry): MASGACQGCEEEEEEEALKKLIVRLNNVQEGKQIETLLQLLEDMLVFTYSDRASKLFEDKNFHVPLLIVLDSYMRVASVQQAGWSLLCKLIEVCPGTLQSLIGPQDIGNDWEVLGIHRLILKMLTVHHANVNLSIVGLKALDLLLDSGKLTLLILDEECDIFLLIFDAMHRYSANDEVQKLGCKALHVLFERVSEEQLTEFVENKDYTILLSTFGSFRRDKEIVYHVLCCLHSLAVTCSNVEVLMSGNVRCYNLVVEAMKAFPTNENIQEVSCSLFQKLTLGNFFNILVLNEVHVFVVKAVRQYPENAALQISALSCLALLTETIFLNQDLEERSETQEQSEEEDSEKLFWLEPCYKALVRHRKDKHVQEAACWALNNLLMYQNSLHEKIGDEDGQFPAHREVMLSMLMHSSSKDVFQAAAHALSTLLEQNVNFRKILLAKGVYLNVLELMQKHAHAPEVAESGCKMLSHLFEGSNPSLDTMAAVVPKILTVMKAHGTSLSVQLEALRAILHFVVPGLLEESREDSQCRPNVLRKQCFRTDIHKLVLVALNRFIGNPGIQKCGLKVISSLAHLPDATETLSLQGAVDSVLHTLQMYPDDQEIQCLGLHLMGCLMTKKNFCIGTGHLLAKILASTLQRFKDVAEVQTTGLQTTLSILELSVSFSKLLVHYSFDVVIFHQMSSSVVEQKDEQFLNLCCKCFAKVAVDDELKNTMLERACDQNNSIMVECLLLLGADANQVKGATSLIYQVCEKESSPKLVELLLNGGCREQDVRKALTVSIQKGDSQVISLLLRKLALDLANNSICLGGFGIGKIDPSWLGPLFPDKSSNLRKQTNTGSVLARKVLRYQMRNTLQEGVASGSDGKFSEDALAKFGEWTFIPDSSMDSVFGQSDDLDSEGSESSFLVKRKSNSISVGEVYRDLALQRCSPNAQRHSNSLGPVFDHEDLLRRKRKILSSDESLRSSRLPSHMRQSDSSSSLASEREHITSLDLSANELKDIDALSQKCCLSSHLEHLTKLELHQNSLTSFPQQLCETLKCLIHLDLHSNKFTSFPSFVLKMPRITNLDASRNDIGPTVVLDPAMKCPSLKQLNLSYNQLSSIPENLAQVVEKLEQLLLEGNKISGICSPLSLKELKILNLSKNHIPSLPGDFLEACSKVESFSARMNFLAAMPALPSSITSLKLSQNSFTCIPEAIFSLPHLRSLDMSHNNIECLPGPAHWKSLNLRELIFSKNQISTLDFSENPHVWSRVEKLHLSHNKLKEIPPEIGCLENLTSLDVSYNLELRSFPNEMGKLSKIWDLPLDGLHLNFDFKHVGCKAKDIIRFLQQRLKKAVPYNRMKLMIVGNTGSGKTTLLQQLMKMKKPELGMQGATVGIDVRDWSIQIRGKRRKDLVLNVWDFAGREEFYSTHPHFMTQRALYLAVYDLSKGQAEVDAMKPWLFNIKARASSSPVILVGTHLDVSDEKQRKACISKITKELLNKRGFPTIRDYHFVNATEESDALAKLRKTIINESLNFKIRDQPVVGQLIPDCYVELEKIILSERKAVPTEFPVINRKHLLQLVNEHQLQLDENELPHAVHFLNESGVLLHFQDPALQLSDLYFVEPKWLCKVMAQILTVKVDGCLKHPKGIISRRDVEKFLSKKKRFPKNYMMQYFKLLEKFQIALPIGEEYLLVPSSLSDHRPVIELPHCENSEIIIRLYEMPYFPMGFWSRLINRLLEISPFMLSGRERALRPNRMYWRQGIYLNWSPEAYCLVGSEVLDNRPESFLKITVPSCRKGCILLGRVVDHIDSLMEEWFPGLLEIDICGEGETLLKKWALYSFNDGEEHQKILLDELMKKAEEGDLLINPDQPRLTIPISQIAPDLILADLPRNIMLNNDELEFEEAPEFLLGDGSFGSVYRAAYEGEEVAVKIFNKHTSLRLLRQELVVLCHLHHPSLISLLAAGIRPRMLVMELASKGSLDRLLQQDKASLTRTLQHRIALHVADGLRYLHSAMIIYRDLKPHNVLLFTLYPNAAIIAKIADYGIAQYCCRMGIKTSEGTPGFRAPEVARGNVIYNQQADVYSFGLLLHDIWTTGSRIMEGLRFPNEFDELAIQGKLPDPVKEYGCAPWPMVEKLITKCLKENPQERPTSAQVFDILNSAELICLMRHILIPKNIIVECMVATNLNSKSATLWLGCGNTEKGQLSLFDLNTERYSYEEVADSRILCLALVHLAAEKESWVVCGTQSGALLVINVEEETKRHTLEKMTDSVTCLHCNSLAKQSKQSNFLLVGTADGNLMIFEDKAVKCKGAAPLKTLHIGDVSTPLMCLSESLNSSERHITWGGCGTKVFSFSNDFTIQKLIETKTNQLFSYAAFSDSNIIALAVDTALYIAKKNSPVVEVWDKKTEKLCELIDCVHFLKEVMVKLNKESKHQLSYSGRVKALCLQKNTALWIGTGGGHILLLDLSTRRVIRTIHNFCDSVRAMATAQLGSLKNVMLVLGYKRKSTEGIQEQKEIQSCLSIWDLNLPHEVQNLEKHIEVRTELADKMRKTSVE

Molecule	colocalization with endogenous LRRK2 on phagosomes
B1	LRRK2 recruitment to phagosomes was slightly detectable
B5	did not colocalize with endogenous LRRK2
B2	clearly colocalized with LRRK2 on zymosan-containing phagosomes
B4	clearly colocalized with LRRK2 on zymosan-containing phagosomes
B3	LRRK2 recruitment to phagosomes was slightly detectable
